Results as given in patent publication US20040136982A1.

Legend:
FLAG-sBST2-GST (human) [1] = biological target: FLAG-sBST2-GST (human) (UniProt Q10589); test: ELISA, plate coated with FLAG-sBST2-GST, control IgG1 (κ)
FLAG-sBST2-GST (human) [2] = biological target: FLAG-sBST2-GST (human) (UniProt Q10589); test: ELISA, plate coated with FLAG-sBST2-GST, control IgG4 (κ)

Sequence of FLAG-sBST2-GST (human) (Q10589 other isoform, or with tags, fused parts or gaps): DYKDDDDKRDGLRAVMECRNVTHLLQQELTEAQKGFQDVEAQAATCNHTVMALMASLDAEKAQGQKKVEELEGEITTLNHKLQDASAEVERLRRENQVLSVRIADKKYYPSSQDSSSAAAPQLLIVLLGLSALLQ

Row | Substance | A450 nm/A570 nm (FLAG-sBST2-GST (human) [1]) [absorbance] | A450 nm/A570 nm (FLAG-sBST2-GST (human) [2]) [absorbance]
1 | Control IgG1 (κ) (antibody) | 0.014 | 
2 | Control IgG4 (κ) (antibody) |  | 0.013
